Experimental data published in patent publication US20230357429A1 (JANUX THERAPEUTICS, published 2023).
Like-named read-outs stand apart in the source and are kept apart here. Where no end group is shown, it is not given here.

T1: Human TROP2 ECD (31-274 AA), biotinylated (human, UniProt P09758 31-274, biotinylated (site not stated))
T1 construct: also called tumor-associated calcium signal transducer 2; Human TROP2-biotin
T1 sequence: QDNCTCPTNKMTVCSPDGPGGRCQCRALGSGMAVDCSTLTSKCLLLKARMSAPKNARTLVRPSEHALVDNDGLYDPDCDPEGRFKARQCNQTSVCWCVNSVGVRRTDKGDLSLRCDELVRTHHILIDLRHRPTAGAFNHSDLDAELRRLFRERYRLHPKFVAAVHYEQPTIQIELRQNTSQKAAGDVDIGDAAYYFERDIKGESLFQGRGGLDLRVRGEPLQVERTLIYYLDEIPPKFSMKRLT


Legend:
TBD-1 wt [1] = target: T2, TBD-1 wt; assay: competition ELISA, peptide vs Fab binding to captured biotin-TROP2
T2 construct: Fab; the heavy chain entry is VH-CH1; also called wild-type anti-TROP2 Fab (hRS7); TROP2 Fab

TBD-6 (LC I93A) [2] = target: T3, TBD-6 (LC I93A); assay: as above
T3 construct: Fab; also called LC I93A mutant

TBD-11 (HC R98A) [3] = target: T4, TBD-11 (HC R98A); assay: as above
T4 construct: Fab; also called HC R98A mutant

TBD-17 (HC S104A) [4] = target: T5, TBD-17 (HC S104A); assay: as above
T5 construct: Fab; also called HC S104A mutant

TBD-21 (HC F108A) [5] = target: T6, TBD-21 (HC F108A); assay: as above
T6 construct: Fab; also called HC F108A mutant

TBD-22 (HC D109A) [6] = target: T7, TBD-22 (HC D109A); assay: as above
T7 construct: Fab; also called HC D109A mutant

TBD-1 wt [7] = target: T2, TBD-1 wt; assay: as above; remark: listed apart in the source
TBD-6 (LC I93A) [8] = target: T3, TBD-6 (LC I93A); assay: as above; remark: listed apart in the source
TBD-11 (HC R98A) [9] = target: T4, TBD-11 (HC R98A); assay: as above; remark: listed apart in the source
TBD-17 (HC S104A) [10] = target: T5, TBD-17 (HC S104A); assay: as above; remark: listed apart in the source
TBD-21 (HC F108A) [11] = target: T6, TBD-21 (HC F108A); assay: as above; remark: listed apart in the source
TBD-22 (HC D109A) [12] = target: T7, TBD-22 (HC D109A); assay: as above; remark: listed apart in the source
[13] = target: T1, Human TROP2 ECD (31-274 AA), …; assay: ELISA on immobilized TROP2

Binder	IC50 (TBD-1 wt [1]) [µM]	IC50 (TBD-6 (LC I93A) [2]) [µM]	IC50 (TBD-11 (HC R98A) [3]) [µM]	IC50 (TBD-17 (HC S104A) [4]) [µM]	IC50 (TBD-21 (HC F108A) [5]) [µM]	IC50 (TBD-22 (HC D109A) [6]) [µM]	IC50 (TBD-1 wt [7]) [µM]	IC50 (TBD-6 (LC I93A) [8]) [µM]	IC50 (TBD-11 (HC R98A) [9]) [µM]	IC50 (TBD-17 (HC S104A) [10]) [µM]	IC50 (TBD-21 (HC F108A) [11]) [µM]	IC50 (TBD-22 (HC D109A) [12]) [µM]	EC50 [13] [µM]
EDFCYWYQWPICSD (cysteine pairing not given here; also: biotinylated, site not given here) [Peptide-35]	4.4	3.2	21.9	9.4	19.2	0.87	–	–	–	–	–	–	–
VDFCKIYSWPVCHQ (cysteine pairing not given here; also: biotinylated (site not given here)) [Peptide-25]	3.03	1.28	18	3.75	6.73	0.29	2.58	1.03	8.1	3.04	6.45	0.14	–
VDFCGLYHWPICYQVD (cysteine pairing not given here; also: biotinylated, site not given here) [Peptide-39]	0.46	0.67	1.64	1.69	2.23	0.14	–	–	–	–	–	–	–
PDFCYMYNWPVCVT (cysteine pairing not given here; also: biotinylated, site not given here) [Peptide-33]	5.6	2.16	18	6.01	15.7	0.33	–	–	–	–	–	–	–
IDFCMLYNWPICAG (cysteine pairing not given here; also: biotinylated, site not given here) [Peptide-3]	0.43	0.53	2.72	1.48	2	0.12	0.34	0.37	1.48	1.01	2.64	0.09	–
PC-16 (bispecific antibody, anti-TROP2 D109A) light: GGIDFCAIYQWPVCRSGGGGSGGLSGRSDAGSPLGLAGSGGSDIQLTQSPSSLSASVGDRVSITCKASQDVSIAVAWYQQKPGKAPKLLIYSASYRYTGVPDRFSGSGSGTDFTLTISSLQPEDFAVYYCQQHYITPLTFGAGTKVEIKRTVAAPSVFIFPPSDEQLKSGTASVVCLLNNFYPREAKVQWKVDNALQSGNSQESVTEQDSKDSTYSLSSTLTLSKADYEKHKVYACEVTHQGLSSPVTKSFNRGEC heavy: not shown	–	–	–	–	–	–	–	–	–	–	–	–	0.0698
PC-24 (bispecific antibody, anti-TROP2 D109A) light: GGVDFCGLYHWPICYQVGGGSGGLSGRSDAGSPLGLAGSGGSDIQLTQSPSSLSASVGDRVSITCKASQDVSIAVAWYQQKPGKAPKLLIYSASYRYTGVPDRFSGSGSGTDFTLTISSLQPEDFAVYYCQQHYITPLTFGAGTKVEIKRTVAAPSVFIFPPSDEQLKSGTASVVCLLNNFYPREAKVQWKVDNALQSGNSQESVTEQDSKDSTYSLSSTLTLSKADYEKHKVYACEVTHQGLSSPVTKSFNRGEC heavy: not shown	–	–	–	–	–	–	–	–	–	–	–	–	0.0875
PC-22 (bispecific antibody, anti-TROP2 R98A) light: GGVDFCGLYHWPICYQVGGGSGGLSGRSDAGSPLGLAGSGGSDIQLTQSPSSLSASVGDRVSITCKASQDVSIAVAWYQQKPGKAPKLLIYSASYRYTGVPDRFSGSGSGTDFTLTISSLQPEDFAVYYCQQHYITPLTFGAGTKVEIKRTVAAPSVFIFPPSDEQLKSGTASVVCLLNNFYPREAKVQWKVDNALQSGNSQESVTEQDSKDSTYSLSSTLTLSKADYEKHKVYACEVTHQGLSSPVTKSFNRGEC heavy: not shown	–	–	–	–	–	–	–	–	–	–	–	–	0.142
PC-20 (bispecific antibody, anti-TROP2 D109A) light: GGVDFCALYHWPICYQGGGGSGGLSGRSDAGSPLGLAGSGGSDIQLTQSPSSLSASVGDRVSITCKASQDVSIAVAWYQQKPGKAPKLLIYSASYRYTGVPDRFSGSGSGTDFTLTISSLQPEDFAVYYCQQHYITPLTFGAGTKVEIKRTVAAPSVFIFPPSDEQLKSGTASVVCLLNNFYPREAKVQWKVDNALQSGNSQESVTEQDSKDSTYSLSSTLTLSKADYEKHKVYACEVTHQGLSSPVTKSFNRGEC heavy: not shown	–	–	–	–	–	–	–	–	–	–	–	–	0.0743
PC-26 (bispecific antibody, anti-TROP2 D109A) light: GGVDFCAIYSWPICKIGGGGSGGLSGRSDAGSPLGLAGSGGSDIQLTQSPSSLSASVGDRVSITCKASQDVSIAVAWYQQKPGKAPKLLIYSASYRYTGVPDRFSGSGSGTDFTLTISSLQPEDFAVYYCQQHYITPLTFGAGTKVEIKRTVAAPSVFIFPPSDEQLKSGTASVVCLLNNFYPREAKVQWKVDNALQSGNSQESVTEQDSKDSTYSLSSTLTLSKADYEKHKVYACEVTHQGLSSPVTKSFNRGEC heavy: not shown	–	–	–	–	–	–	–	–	–	–	–	–	0.0543
PDFCYMYGWPICDS (cysteine pairing not given here; also: biotinylated, site not given here) [Peptide-32]	4.94	3.29	9.93	9.44	13.2	0.33	–	–	–	–	–	–	–

Results, then the binder that gave them:

IC50 (TBD-1 wt [1]) [µM]	IC50 (TBD-6 (LC I93A) [2]) [µM]	IC50 (TBD-11 (HC R98A) [3]) [µM]	IC50 (TBD-17 (HC S104A) [4]) [µM]	IC50 (TBD-21 (HC F108A) [5]) [µM]	IC50 (TBD-22 (HC D109A) [6]) [µM]	IC50 (TBD-1 wt [7]) [µM]	IC50 (TBD-6 (LC I93A) [8]) [µM]	IC50 (TBD-11 (HC R98A) [9]) [µM]	IC50 (TBD-17 (HC S104A) [10]) [µM]	IC50 (TBD-21 (HC F108A) [11]) [µM]	IC50 (TBD-22 (HC D109A) [12]) [µM]	EC50 [13] [µM]	Binder
5.11	3.8	19.9	14.8	19.9	1.72	–	–	–	–	–	–	–	VDFCYQYGWPICSR (cysteine pairing not given here; also: biotinylated, site not given here) [Peptide-36]
1.47	0.55	4.87	1.42	3.01	0.08	–	–	–	–	–	–	–	IDFCAVYKWPVCQV (cysteine pairing not given here; also: biotinylated, site not given here) [Peptide-62]
0.3	0.22	1.21	0.59	0.94	0.06	–	–	–	–	–	–	–	IDFCAMYHWPICDT (cysteine pairing not given here; also: biotinylated, site not given here) [Peptide-42]
0.64	0.58	1.51	1.55	1.5	0.11	–	–	–	–	–	–	–	VDFCGLYHWPICYQVY (cysteine pairing not given here; also: biotinylated, site not given here) [Peptide-41]
3.63	2.28	14.6	7.26	10	0.58	–	–	–	–	–	–	–	VDFCYLYSWPICTK (cysteine pairing not given here; also: biotinylated, site not given here) [Peptide-40]
6.28	2.6	16.6	4.08	15.5	0.37	–	–	–	–	–	–	–	VDFCYLYNWPVCSK (cysteine pairing not given here; also: biotinylated, site not given here) [Peptide-37]
1.63	0.52	4.42	2.03	3.54	0.17	–	–	–	–	–	–	–	VDFCSIYHWPVCYV (cysteine pairing not given here; also: biotinylated, site not given here) [Peptide-38]
0.3	0.44	0.77	0.56	0.69	0.05	–	–	–	–	–	–	–	VDFCALYHWPICYQ (cysteine pairing not given here; also: biotinylated, site not given here) [Peptide-43]
